Substitutions are numbered along the chain they refer to.
Assays:
[1] = molecular target: T1, D-dimer (TGpr1; fibrin clot degradation product DD) (UniProt P02671;P02675;P02679-2 P02671:124-225,P02675:164-491,P02679-2:89-437); assay: ELONA; TGpr1/SUBpr1 binding ratio, 500 nM aptamer; conditions: chain copies: 2
Description: FIG. 6 is a graph of the relative fluorescence of five aptamers to TGpr-1 protein and SUBpr-1 protein. The test was performed with an ELONA method with fixed aptamer concentration (500 nM) and protein amount (2 ug/well). *p<0.01.

[2] = molecular target: T1, D-dimer (TGpr1; fibrin clot degradation …); assay: ELONA; considered non-specific; conditions: chain copies: 2; label: 5' biotin
[3] = molecular target: T1, D-dimer (TGpr1; fibrin clot degradation …); assay: ELONA; unit printed as Nm; conditions: chain copies: 2
[4] = molecular target: Insoluble cross-linked fibrin / plasma-derived blood clot (Homo sapiens, UniProt P02671-2;P02675;P02679-2 P02671-2:36-644,P02675:45-491,P02679-2:27-437); assay: qPCR-based binding assay; conditions: tags: clot prepared from citrated plasma plus CaCl2
Insoluble cross-linked fibrin / plasma-derived blood clot, sequence (P02671 other isoform, or with tags, fused parts or gaps, chain 1 of 3): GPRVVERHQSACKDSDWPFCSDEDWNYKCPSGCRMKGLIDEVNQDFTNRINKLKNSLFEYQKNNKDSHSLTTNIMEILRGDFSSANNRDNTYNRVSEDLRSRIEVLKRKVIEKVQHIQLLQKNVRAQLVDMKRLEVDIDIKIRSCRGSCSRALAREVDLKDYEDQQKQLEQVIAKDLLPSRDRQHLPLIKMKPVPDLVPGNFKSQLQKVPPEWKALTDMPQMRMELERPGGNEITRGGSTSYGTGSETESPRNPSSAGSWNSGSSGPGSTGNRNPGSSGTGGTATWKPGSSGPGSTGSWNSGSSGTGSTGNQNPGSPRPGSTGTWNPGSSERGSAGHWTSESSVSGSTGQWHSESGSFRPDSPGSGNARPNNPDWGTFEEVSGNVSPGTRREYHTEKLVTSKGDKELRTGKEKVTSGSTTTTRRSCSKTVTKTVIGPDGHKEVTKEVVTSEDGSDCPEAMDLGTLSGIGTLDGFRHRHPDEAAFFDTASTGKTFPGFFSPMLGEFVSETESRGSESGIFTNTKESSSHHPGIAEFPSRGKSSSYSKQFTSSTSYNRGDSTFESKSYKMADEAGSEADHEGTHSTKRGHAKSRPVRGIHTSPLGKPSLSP
Insoluble cross-linked fibrin / plasma-derived blood clot, sequence (P02675 45-491, chain 2 of 3): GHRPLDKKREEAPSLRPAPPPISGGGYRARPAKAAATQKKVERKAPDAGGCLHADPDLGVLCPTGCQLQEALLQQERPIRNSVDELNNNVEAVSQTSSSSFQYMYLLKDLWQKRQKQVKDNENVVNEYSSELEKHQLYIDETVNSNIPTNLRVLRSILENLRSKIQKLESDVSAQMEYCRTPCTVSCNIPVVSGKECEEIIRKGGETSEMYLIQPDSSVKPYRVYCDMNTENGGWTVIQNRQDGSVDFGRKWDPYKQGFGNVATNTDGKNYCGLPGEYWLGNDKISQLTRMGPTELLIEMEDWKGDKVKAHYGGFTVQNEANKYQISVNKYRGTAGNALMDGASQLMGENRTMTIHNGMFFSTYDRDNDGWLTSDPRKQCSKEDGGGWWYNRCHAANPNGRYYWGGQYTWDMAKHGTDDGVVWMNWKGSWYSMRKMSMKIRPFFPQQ
Insoluble cross-linked fibrin / plasma-derived blood clot, sequence (P02679 other isoform, or with tags, fused parts or gaps, chain 3 of 3): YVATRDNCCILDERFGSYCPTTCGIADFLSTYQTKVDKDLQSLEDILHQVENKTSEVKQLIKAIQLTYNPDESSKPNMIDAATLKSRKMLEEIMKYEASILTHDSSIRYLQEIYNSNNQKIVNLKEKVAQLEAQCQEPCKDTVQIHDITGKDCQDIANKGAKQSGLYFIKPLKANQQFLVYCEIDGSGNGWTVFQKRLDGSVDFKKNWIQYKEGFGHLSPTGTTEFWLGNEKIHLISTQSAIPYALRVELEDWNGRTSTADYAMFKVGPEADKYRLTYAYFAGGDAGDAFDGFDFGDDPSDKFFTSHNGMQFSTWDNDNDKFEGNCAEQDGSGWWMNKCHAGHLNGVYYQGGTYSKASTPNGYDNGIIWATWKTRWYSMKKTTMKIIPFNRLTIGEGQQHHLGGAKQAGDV

Fibrinogen = Fibrinogen (UniProt P02671-2;P02675;P02679-2 P02671-2:20-644,P02675:31-491,P02679-2:27-437); assay: ELONA; 100 nM aptamer; conditions: chain copies: 2; label: 5' FAM (ELONA and imaging)
Fibrinogen, sequence (P02671 other isoform, or with tags, fused parts or gaps, chain 1 of 3): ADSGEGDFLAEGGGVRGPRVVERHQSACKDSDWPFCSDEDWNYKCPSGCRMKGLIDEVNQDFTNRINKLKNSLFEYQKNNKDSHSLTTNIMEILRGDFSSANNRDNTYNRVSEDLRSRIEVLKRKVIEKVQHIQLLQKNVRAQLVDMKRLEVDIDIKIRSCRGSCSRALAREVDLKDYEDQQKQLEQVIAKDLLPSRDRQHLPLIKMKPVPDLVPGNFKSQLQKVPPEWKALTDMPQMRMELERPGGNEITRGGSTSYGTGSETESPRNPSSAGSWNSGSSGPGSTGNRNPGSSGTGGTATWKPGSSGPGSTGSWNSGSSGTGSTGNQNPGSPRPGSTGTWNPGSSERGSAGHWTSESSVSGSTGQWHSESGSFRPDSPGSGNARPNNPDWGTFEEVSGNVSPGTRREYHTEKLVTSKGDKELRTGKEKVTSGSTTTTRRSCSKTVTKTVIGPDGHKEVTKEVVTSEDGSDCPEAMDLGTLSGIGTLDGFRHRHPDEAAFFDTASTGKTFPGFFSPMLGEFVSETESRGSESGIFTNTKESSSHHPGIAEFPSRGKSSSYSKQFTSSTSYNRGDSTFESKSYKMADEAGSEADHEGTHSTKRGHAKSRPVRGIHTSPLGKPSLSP
Fibrinogen, sequence (P02675 31-491, chain 2 of 3): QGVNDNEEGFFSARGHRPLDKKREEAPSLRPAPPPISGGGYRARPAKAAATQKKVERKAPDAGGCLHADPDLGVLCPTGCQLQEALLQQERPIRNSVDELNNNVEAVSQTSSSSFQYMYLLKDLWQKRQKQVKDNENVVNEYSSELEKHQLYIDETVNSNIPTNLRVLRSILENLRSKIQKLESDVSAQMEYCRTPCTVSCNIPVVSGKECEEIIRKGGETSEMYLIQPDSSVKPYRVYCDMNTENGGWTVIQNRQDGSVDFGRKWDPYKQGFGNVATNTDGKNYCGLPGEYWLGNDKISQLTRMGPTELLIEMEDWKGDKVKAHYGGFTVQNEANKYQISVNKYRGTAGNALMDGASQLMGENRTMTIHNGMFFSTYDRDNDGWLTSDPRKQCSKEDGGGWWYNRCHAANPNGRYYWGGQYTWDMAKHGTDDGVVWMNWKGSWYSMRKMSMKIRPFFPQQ

[5] = molecular target: T1, D-dimer (TGpr1; fibrin clot degradation …); assay: ELONA; 100 nM aptamer; conditions: chain copies: 2; label: 5' FAM (ELONA and imaging)
[6] = molecular target: T1, D-dimer (TGpr1; fibrin clot degradation …); assay: ELONA; conditions: chain copies: 2

T1 sequence (P02671 124-225, chain 1 of 3): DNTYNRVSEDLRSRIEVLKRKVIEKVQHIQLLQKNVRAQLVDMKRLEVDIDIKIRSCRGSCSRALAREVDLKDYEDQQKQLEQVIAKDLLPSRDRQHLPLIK
T1 sequence (P02675 164-491, chain 2 of 3): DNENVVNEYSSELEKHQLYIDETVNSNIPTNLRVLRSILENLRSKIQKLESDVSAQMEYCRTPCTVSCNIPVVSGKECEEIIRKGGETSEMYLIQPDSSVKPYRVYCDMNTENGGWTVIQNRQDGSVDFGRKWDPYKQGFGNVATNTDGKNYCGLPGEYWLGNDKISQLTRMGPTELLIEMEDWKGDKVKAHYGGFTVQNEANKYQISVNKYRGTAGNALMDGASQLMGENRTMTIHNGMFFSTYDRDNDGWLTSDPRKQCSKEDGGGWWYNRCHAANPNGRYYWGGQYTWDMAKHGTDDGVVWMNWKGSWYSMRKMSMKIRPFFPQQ
T1 sequence (P02679 other isoform, or with tags, fused parts or gaps, chain 3 of 3): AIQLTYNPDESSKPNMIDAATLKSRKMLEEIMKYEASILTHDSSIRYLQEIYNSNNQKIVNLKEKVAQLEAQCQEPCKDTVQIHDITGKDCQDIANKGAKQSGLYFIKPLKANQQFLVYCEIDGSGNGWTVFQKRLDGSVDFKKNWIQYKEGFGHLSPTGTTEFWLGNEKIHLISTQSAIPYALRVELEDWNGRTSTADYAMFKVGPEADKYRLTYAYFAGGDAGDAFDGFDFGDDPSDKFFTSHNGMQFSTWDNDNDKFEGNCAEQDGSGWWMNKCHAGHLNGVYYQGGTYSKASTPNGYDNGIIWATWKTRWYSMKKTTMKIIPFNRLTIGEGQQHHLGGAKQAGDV

With AAGGGAAAGTGTATACACTATGGCT (ssDNA) [EM9-02] as the binder, how does the binding signal [1] read?
The binding signal was 1.85 ratio.

B1: AP1 (ssDNA)
DNA: ACAAAGCGACACACAGGAGCCCGGTCGGCGGGGGGGCGGGTGGAGAACGAGGTAGGGGTCAGGACAGGACCACACCCAGCG
With B1 as the binder, how does the Kd [2] read?
The Kd was greater than 1000 nM.

B2: AP3 (ssDNA)
DNA: B1 DNA with G33T
With B2 as the binder, how does the Kd [2] read?
Its Kd is greater than 1000 nM.

B3: AP10-01-81 (ssDNA)
DNA: GGACAGGACCACACCCAGCGACAGTGTGGGCGGGCGGGTGGTTTGGAGCTGGTAGCGGTAGGCTCCTGTGTGTCGCTTTGT
B3 was tested. Which Kd [3] did it give?
Its Kd is 59 nM.

B4: RNV607 (ssDNA)
DNA: GGACAGGACCACACCCAGCGAGGAAATATTTAGGCACCCGGTCTCTGAAAATATTGTGCTGGCTCCTGTGTGTCGCTTTGT
Does B4 bind [4]?
Result: binds

B5: RNV605 (ssDNA)
DNA: GGACAGGACCACACCCAGCGATAATTAGGCATCCGGTCGCCAACCTTGGAGAAACTATCTGGCTCCTGTGTGTCGCTTTGT
Does B5 bind (Fibrinogen)?
Result: no binding

Does B5 bind [5]?
Result: no binding

B6: EM1 (ssDNA)
DNA: ACAAAGCGACACACAGGAGCCCAATGATGCTGTTATGGCGCTTTGTGGACAGGACCACACCCAGCG
For B6, which Kd [2] is on record?
Its Kd is greater than 1000 nM.

B7: RNV606 (ssDNA)
DNA: GGACAGGACCACACCCAGCGGATAACTAGGCACCCGGTGTCGTTATTATGACAAGATATTGGCTCCTGTGTGTCGCTTTGT
Does B7 bind [4]?
Result: binds

Which results are given for ACAGTGTGGGCGGGCGGGTGGTTTGGAGCTGGTAGCGGTA (ssDNA) [AP10-01]?
Kd [6]: 54 nM; binding signal [1]: 4.21 ratio

B8: RNV603 (ssDNA)
DNA: GGACAGGACCACACCCAGCGTGCGTGAAATTCGGGGCATGGTTAGGATAGGTAATATTTTGGCTCCTGTGTGTCGCTTTGT
Does B8 bind [4]?
Result: binds

B9: RNV604 (ssDNA)
DNA: GGACAGGACCACACCCAGCGGATACCTGAAGCTGGCCCACATTTATCTACGCGATATATTGGCTCCTGTGTGTCGCTTTGT
Does B9 bind [4]?
Result: binds

B10: RNV602 (ssDNA)
DNA: GGACAGGACCACACCCAGCGTAATAATATGGGGCTTGCGGTCCCCGATTTTTATGCACACGGCTCCTGTGTGTCGCTTTGT
Does B10 bind (Fibrinogen)?
Result: no binding

Does B10 bind [5]?
Result: no binding
